Data: patent US9187525B2, “Methods of treating ophthalmic diseases using NPR-B agonists” (Shire Orphan Therapies GmbH, dated 2015)
Numbered stars: 1 amine (or outer) side, 2 acyl side, 3 side chain; on linkers, the order of the positions; unused ones are H or OH. Square brackets hold non-standard residues; d marks the D form. Ends that are not written are not given here. * marks the point of attachment. Tap(Ae) = (2S,4R)-4-(2-aminoethylamino)pyrrolidine-2-carboxylic acid, O=C([C@@H]1C[C@@H](NCCN[*:3])CN1[*:1])[*:2]; Paa = piperazin-1-yl-acetic acid, O=C(CN1CCN([*:1])CC1)[*:2]; Pro(trans-4-NH2) = O=C([C@@H]1C[C@@H](N[*:3])CN1[*:1])[*:2]; Sni = (S)-nipecotic acid, O=C([C@H]1CCCN([*:1])C1)[*:2]; Hyp = O=C(O)[C@@H]1C[C@@H](O)CN1; d(β3hL) = CC(C)C[C@@H](N)CC(=O)O; hPhe = N[C@@H](CCc1ccccc1)C(=O)O; 2Thi = N[C@@H](Cc1cccs1)C(=O)O; NMeL = CN[C@@H](CC(C)C)C(=O)O; AR‑314‑87 = not defined here; Chg = N[C@H](C(=O)O)C1CCCCC1; BB394 = not defined here; BB785 = not defined here; Nle = CCCC[C@H](N)C(=O)O; Octanoyl = CCCCCCCC(=O)*; Che = not defined here; Hexanoyl = CCCCCC(=O)*; leu = not defined here; Occ = octanoic acid

B1: JAL-1697 (peptide)
peptide: [Occ][Sni]FLL[Hyp][NMeL]D[BB785][Che]
modifications: not fully specified (residue 4); printed as Occ-Sni-Phe-leu-Leu-Hyp-Nml-Asp-(BB785)-Che; reading uncertain
B2: JAL-1752 (peptide)
peptide: [Occ][Sni]FLL[Hyp][NMeL]SR[Che]
modifications: not fully specified (residue 4); printed as Occ-Sni-Phe-leu-Leu-Hyp-Nml-Ser-Arg-Che; reading uncertain
B3: JAL-1694 (peptide)
peptide: [Occ][Sni]FLL[Hyp][NMeL]D[BB394][Che]
modifications: not fully specified (residue 4); printed as Occ-Sni-Phe-leu-Leu-Hyp-Nml-Asp-(BB394)-Che; reading uncertain
B4: JAL-1681 (peptide)
peptide: [Occ][Sni]FLL[Tap(Ae)][NMeL]DR[Che]
modifications: not fully specified (residue 4); printed as Occ-Sni-Phe-leu-Leu-Tap(Ae)-Nml-Asp-Arg-Che; reading uncertain
B5: JAL-1758 (peptide)
peptide: [Occ][Sni]FLL[Hyp][NMeL][2Thi]R[Che]
modifications: not fully specified (residue 4); printed as Occ-Sni-Phe-leu-Leu-Hyp-Nml-Thi-Arg-Che; reading uncertain
B6: JAL-1730 (peptide)
peptide: [Occ][Sni]FLL[Hyp][NMeL]VR[Che]
modifications: not fully specified (residue 4); printed as Occ-Sni-Phe-leu-Leu-Hyp-Nml-Val-Arg-Che; reading uncertain
B7: JAL-1753 (peptide)
peptide: [Occ][Sni]FLL[Hyp][NMeL]TR[Che]
modifications: not fully specified (residue 4); printed as Occ-Sni-Phe-leu-Leu-Hyp-Nml-Thr-Arg-Che; reading uncertain
B8: JAL-1756 (peptide)
peptide: [Occ][Sni]FLL[Hyp][NMeL][d(β3hL)]R[Che]
modifications: not fully specified (residue 4); printed as Occ-Sni-Phe-leu-Leu-Hyp-Nml-Ble-Arg-Che; reading uncertain
B9: JAL-1683 (peptide)
peptide: [Occ][Sni]FLL[Tap(Ae)][NMeL]VR[Che]
modifications: not fully specified (residue 4); printed as Occ-Sni-Phe-leu-Leu-Tap(Ae)-Nml-Val-Arg-Che; reading uncertain
B10: JAL-1687 (peptide)
peptide: [Occ][Sni]FLL[Hyp][NMeL]D[Apc(Gly)][Che]
modifications: not fully specified (residue 4); printed as Occ-Sni-Phe-leu-Leu-Hyp-Nml-Asp-Apc(Gly)-Che; reading uncertain
B11: JAL-1682 (peptide)
peptide: [Occ][Sni]FLL[Pro(trans-4-NH2)][NMeL]DR[Che]
modifications: not fully specified (residue 4); printed as Occ-Sni-Phe-leu-Leu-Tap-Nml-Asp-Arg-Che; reading uncertain
B12: JAL-1755 (peptide)
peptide: [Occ][Sni]FLL[Hyp][NMeL][Nle]R[Che]
modifications: not fully specified (residue 4); printed as Occ-Sni-Phe-leu-Leu-Hyp-Nml-Nle-Arg-Che; reading uncertain
B13: JAL-0713 (peptide)
peptide: XXFGLKLDRI
HELM: PEPTIDE1{[CCCCCC(=O)[*:2]].[O=C(c1nc(N[*:1])cs1)[*:2]].F.G.L.K.L.D.R.I.[am]}$$$$V2.0
SMILES: CCCCCC(=O)Nc1csc(C(=O)N[C@@H](Cc2ccccc2)C(=O)NCC(=O)N[C@@H](CC(C)C)C(=O)N[C@@H](CCCCN)C(=O)N[C@@H](CC(C)C)C(=O)N[C@@H](CC(=O)O)C(=O)N[C@@H](CCCNC(=N)N)C(=O)N[C@H](C(N)=O)[C@@H](C)CC)n1
B14: JAL-1729 (peptide)
peptide: [Occ][Sni]FLL[Pro(trans-4-NH2)][NMeL]VR[Che]
modifications: not fully specified (residue 4); printed as Occ-Sni-Phe-leu-Leu-Tap-Nml-Val-Arg-Che; reading uncertain
B15: JAL-1685 (peptide)
peptide: [Occ][Sni]FLL[Hyp][NMeL]D[Apc(Gua)][Che]
modifications: not fully specified (residue 4); printed as Occ-Sni-Phe-leu-Leu-Hyp-Nml-Asp-Apc(Gua)-Che; reading uncertain
B16: JAL-1701 (peptide)
peptide: [Occ][Sni][hPhe]LL[Hyp][NMeL]DRI-NH2
modifications: not fully specified (residue 4); printed as Occ-Sni-Hfe-leu-Leu-Hyp-Nml-Asp-Arg-Ile-
B17: JAL-1751 (peptide)
peptide: [Occ][Sni]FLL[Hyp][NMeL]NR[Che]
modifications: not fully specified (residue 4); printed as Occ-Sni-Phe-leu-Leu-Hyp-Nml-Asn-Arg-Che; reading uncertain

Target: T1, natriuretic peptide receptor-B (human)
T1 chain: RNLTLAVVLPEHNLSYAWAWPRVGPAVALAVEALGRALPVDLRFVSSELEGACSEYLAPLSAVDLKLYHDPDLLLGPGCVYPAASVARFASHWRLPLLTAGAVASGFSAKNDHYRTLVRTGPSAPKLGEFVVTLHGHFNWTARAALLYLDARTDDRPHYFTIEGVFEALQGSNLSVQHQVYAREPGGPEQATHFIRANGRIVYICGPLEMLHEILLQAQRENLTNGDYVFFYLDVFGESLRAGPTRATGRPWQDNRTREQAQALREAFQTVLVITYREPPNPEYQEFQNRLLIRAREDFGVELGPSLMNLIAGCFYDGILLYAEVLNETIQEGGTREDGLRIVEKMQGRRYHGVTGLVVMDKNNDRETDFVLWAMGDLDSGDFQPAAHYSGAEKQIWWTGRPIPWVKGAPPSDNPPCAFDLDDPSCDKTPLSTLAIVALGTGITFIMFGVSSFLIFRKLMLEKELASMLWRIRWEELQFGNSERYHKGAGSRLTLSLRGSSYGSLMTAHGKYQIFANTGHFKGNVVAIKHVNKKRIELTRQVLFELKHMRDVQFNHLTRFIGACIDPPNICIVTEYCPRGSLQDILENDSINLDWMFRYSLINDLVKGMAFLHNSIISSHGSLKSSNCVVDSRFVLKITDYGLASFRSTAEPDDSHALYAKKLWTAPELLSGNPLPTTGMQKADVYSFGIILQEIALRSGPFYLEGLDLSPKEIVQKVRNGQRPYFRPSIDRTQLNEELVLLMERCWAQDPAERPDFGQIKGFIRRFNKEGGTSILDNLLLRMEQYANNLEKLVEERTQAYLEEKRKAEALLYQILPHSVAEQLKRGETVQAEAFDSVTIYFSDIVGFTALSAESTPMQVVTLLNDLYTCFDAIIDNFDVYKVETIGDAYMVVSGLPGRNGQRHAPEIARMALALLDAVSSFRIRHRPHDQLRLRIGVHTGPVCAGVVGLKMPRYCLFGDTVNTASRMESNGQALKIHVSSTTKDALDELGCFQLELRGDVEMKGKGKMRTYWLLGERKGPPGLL
Assay: cell-based or functional assay

Binder	EC50 group, cGMP in GTM-3 cells [µM]
B1	≤ 5
B2	≤ 1
B3	≤ 15
B4	≤ 1
B5	≤ 15
B6	≤ 1
[Occ][Sni]F[dL]L[Hyp][NMeL]DR[Che] (reading uncertain; also: printed as Occ-Sni-Phe-leu-Leu-Hyp-Nml-Asp-Arg-Che) [JAL-1680]	≤ 1
[AR‑314‑87][leu]L[Hyp][NMeL]DRI-NH2 (reading uncertain; also: printed as (AR-314-87)-leu-Leu-Hyp-Nml-Asp-Arg-Ile-NH2) [JAL-1765-2]	≤ 1
Hexanoyl-[dA][dA]FGLKLDR[Chg]-NH2 [JAL-0718]	≤ 15
B7	≤ 1
B8	≤ 5
B9	≤ 15
B10	≤ 5
Octanoyl-[Sni]F[leu]L[Hyp][NMeL][Chg]R[Che] (reading uncertain; also: printed as Occ-Sni-Phe-leu-Leu-Hyp-Nml-Chg-Arg-Che) [JAL-1763]	≤ 15
B11	≤ 1
B12	≤ 15
B13	≤ 15
Hexanoyl-[dA][dA]F[Paa]KLDRI-NH2 [JAL-0731]	≤ 15
B14	≤ 1
B15	≤ 15
B16	≤ 15
B17	≤ 15
